Reference: publication PMC4948679
Where “and” joins values, the source holds several entries; their conditions need not be identical. Equal values may be shown once.

Target: Ab2/3H6, murine/wild-type anti-idiotypic antibody (wt3H6) (mouse (developed from mouse hybridoma))
Experiment: BLI

B1: broadly neutralizing anti-HIV-1 antibody 2F5 (antibody, V domains shown)
VH: RITLKESGPPLVKPTQTLTLTCSFSGFSLSDFGVGVGWIRQPPGKALEWLAIIYSDDDKRYSPSLNTRLTITKDTSKNQVVLVMTRVSPVDTATYFCAHRRGPTTLFGVPIARGPVNAMDVWGQGITVTISS
VL: ALQLTQSPSSLSASVGDRITITCRASQGVTSALAWYRQKPGSPPQLLIYDASSLESGVPSRFSGSGSGTEFTLTISTLRPEDFATYYCQQLHFYPHTFGGGTRVDVR
  response level: 3.5 nm and 3.4 nm
